From PMC9167512, “Intradiol ring cleavage dioxygenases from herbivorous spider mites as a new detoxification enzyme family in animals” (BMC Biology, 2022) come the findings set out here.

Test in all cases: purified protein
What all share (details): 0.1 M PBS pH 7.5, 25 °C, O2 co-substrate (air), Fe enzyme, kcat corrected for iron content

One data set has as its system Oc1ccc(Cl)cc1O.
Substrate in data set [1]: Cc1ccc(O)c(O)c1
The data set is classed as biochemical, Tetranychus urticae.

Substrate in data set [2]: Oc1ccccc1O

As to TuDOG1 (Tetranychus urticae), in the data set with Oc1ccc(Cl)cc1O, the Km is 21.2 ± 7.4 µM, the Vmax came out at 0.08 µM/min, the kcat was 0.0216 ± 0.0027 s⁻¹ and the kcat/Km was determined as 1020 ± 367 M⁻¹ s⁻¹.

For the molecule TuDOG11 (Tetranychus urticae), in the data set with Oc1ccc(Cl)cc1O, the Km was determined as 25.2 ± 4.6 µM, the Vmax came out at 0.09 µM/min, the kcat came out at 0.00858 ± 0.00095 s⁻¹ and the kcat/Km was found to be 333 ± 200 M⁻¹ s⁻¹.

For the molecule TuDOG7 (Tetranychus urticae), in the data set with Oc1ccc(Cl)cc1O, the Km came out at 115.2 ± 35.7 µM, the maximal velocity (Vmax) came to 0.96 µM/min, the kcat worked out at 0.051 ± 0.0122 s⁻¹ and the kcat/Km was found to be 450 ± 350 M⁻¹ s⁻¹.

With TuDOG16 (Tetranychus urticae), in the data set with Oc1ccc(Cl)cc1O, the Km came out at 154.3 ± 20.9 µM, the Vmax was found to be 0.31 µM/min, the kcat was determined as 0.0416 ± 0.00135 s⁻¹ and the kcat/Km worked out at 267 ± 66.7 M⁻¹ s⁻¹.

On to TuDOG15 (Tetranychus urticae), for which, in the data set on Oc1ccc(Cl)cc1O, the Km was 72.0 ± 21.3 µM, the Vmax was determined as 0.62 µM/min, the kcat is 0.0915 ± 0.0133 s⁻¹ and the kcat/Km stood at 1270 ± 617 M⁻¹ s⁻¹.

B1: TuDOG1 (Tetranychus urticae) (protein)
chain: DVHRRGKFLPHDRTVINCASLNRKAHQHSSVLAPFTTEGPFFLPDDLKRSDITDGQKGIPLELTIKLTNAKDCTPISNFFIHAWQTNATGVYSGIDEDTAPLSGFRPTPVNRDRSLRGYQETDANGEVKFLTILPGWYSGRAIHIHIEVYAKDITDENKITYIGQFYFEHDFPLKLRKIYPYSTNTQRIIFNEQDYYYVHDHGDETTLDLKHNGAKFSSYATVAIDPTVTVHVQ
notes: signal peptide removed, N-terminal 6xHis kept, pJExpress 411, E. coli BL21(DE3), codon optimized (ATUM), 25-37 kDa
Regarding B1, in “purified protein [1]”, the Km stood at 15.1 ± 2.7 µM, the Vmax is 0.12 µM/min, the kcat came out at 0.0324 ± 0.0027 s⁻¹ and the kcat/Km came out at 2150 ± 1000 M⁻¹ s⁻¹. In the data set “purified protein [2]”, the Km was 15.2 ± 4.5 µM, the maximal velocity (Vmax) amounted to 0.14 µM/min, the kcat was found to be 0.0378 ± 0.0027 s⁻¹ and the kcat/Km worked out at 2480 ± 600 M⁻¹ s⁻¹.

B2: TuDOG16 (Tetranychus urticae) (protein)
chain: HSERPGKFLEHDRSIVNCARYKREANQHTCVLAPFATEGPYFLADDLERSDITDGQTGVNLDLNLKLTNAKDCSPLSGYFVHIWNANALGHYSGVQEFNKFPKQTFRPKPIYDTRWLRGYQVTNEDGEVNFKTIVPGWYYGRCLHIHVEVYSKNTTDTNAITYIGQLYFKRELPVQLKLVEPYSSNQNELKFNEQDKVFNGMHGNDTITELVFEENNAKTSFILALDPTVTTLTNGTVVN
notes: as for B1
On to B2, for which, in the data set “purified protein [1]”, the Km was found to be 52.4 ± 19.6 µM, the Vmax came out at 0.14 µM/min, the kcat stood at 0.0188 ± 0.00268 s⁻¹ and the kcat/Km is 367 ± 133 M⁻¹ s⁻¹. In the data set “purified protein [2]”, the Km came to 51.0 ± 23.4 µM, the Vmax was 0.06 µM/min, the kcat was determined as 0.00805 ± 0.00135 s⁻¹ and the kcat/Km worked out at 150 ± 50 M⁻¹ s⁻¹.

B3: TuDOG7 (Tetranychus urticae) (protein)
chain: ERSIEILNHDATVIDCARYKREANQHKCVITPFTTEGPYFLPDDYERSDITDGYTGVNLNLTLLLTNAKDCSPLSNYYVHIWNANAMGHYSGVKEFNFFDHPTFRPKPINNLRFLRGYQITNEDGLVNFNTIIPGWYFGRCIHIHVEIYDKNTTDGHAVSYIGQLYFNREMPAALKLIDPYSQNNNELTLNDQDIVFALSRGSDTILELIPEGNGYSASYVLSIDPTVKVENSVLPFEDPRNVSFIEH
For B3, in “purified protein [1]”, the Km came to 62.2 ± 42.3 µM, the Vmax worked out at 0.53 µM/min, the kcat came to 0.0282 ± 0.0122 s⁻¹ and the kcat/Km came out at 450 ± 283 M⁻¹ s⁻¹. In the data set “purified protein [2]”, the Km turned out to be 74.9 ± 30.9 µM, the Vmax was found to be 0.42 µM/min, the kcat amounted to 0.0223 ± 0.00318 s⁻¹ and the kcat/Km was determined as 300 ± 100 M⁻¹ s⁻¹.

B4: TuDOG11 (Tetranychus urticae) (protein)
chain: HLQRPGKFLPHDRSIVDCARYKREANQHTCVLAPFTTEGPYFLPDDLERSDITDGQTGVNLDLNLKLTNAKDCSPLSNYFVHVWQANALGHYSGVNELFPVGFRPKPISGERFLRGYQKTNEDGEVNFKTIIPGWYVGRCIHIHVEVYAKNNTDGNAVNYIGQLYFERDIPSSLRLVEPYSTNVNEITLNDSDGVYLLTHGNDTLIDLVPQESGFRTDYIVAIDPDVSIKYDWLDI
notes: as for B1
As for B4, in the data set “purified protein [1]”, the Km is 153.9 ± 24.6 µM, the Vmax turned out to be 0.58 µM/min, the kcat stood at 0.0553 ± 0.00382 s⁻¹ and the kcat/Km turned out to be 367 ± 150 M⁻¹ s⁻¹. Moreover, in the data set “purified protein [2]”, the Km amounted to 64.9 ± 24.3 µM, the Vmax came out at 0.56 µM/min, the kcat is 0.0534 ± 0.00382 s⁻¹ and the kcat/Km worked out at 817 ± 150 M⁻¹ s⁻¹.

B5: TuDOG15 (Tetranychus urticae) (protein)
chain: DHERPGKYLEHDSTVINCARYKREANQHSCVLAPYAVEGPYFLPDDLERSNLAEDKVGVSLDLAIRLVNSNDCTPLTNMFVHVWHADALGVYSGVPDLAELFVERMRQENKTLPPFWGPEGAYEGRRPGGPGGPGGPGGPGGPGDMEMPGRPTPVNNERFLRGYQVTNEAGEVNFKTIIPGWYTGRSLHIHVEVYSKNTTEPGEVNYIGQIFFKDDLPAELKLIEPYSLNQNILVLNPQDGIYNFAHGEQTKIQLENRETGYFGSMTFGINPNAH
With B5, in the data set “purified protein [1]”, the Km amounted to 117.4 ± 46.5 µM, the Vmax was determined as 1.77 µM/min, the kcat was determined as 0.261 ± 0.0546 s⁻¹ and the kcat/Km was found to be 2230 ± 1170 M⁻¹ s⁻¹. Also, in the data set “purified protein [2]”, the Km was found to be 91.0 ± 21.2 µM, the Vmax amounted to 0.09 µM/min, the kcat turned out to be 0.0133 ± 0.00148 s⁻¹ and the kcat/Km stood at 150 ± 66.7 M⁻¹ s⁻¹.

For orientation: Km means the concentration of substrate that gives half-maximal velocity. As usually defined, the Vmax is the rate approached at saturating substrate. By kcat is commonly meant the number of substrate molecules converted per active site and unit of time at saturation. What is called kcat/Km is the second-order rate constant that governs catalysis at low substrate concentration.
